Measurements published in patent US20230391828A1, “REGULATORS OF CELL DIVISION” (TECHNISCHE UNIVERSITÄT DRESDEN, priority 2020, published 2023).
Bridge positions count the residues as written; N and C are the ends. Square brackets hold non-standard residues; d marks the D form. Pra = C#CC[C@H](N)C(=O)O

Experiments:
APC/C (APC11) = target: T1, APC/C (APC11) (Homo sapiens, UniProt Q9NYG5); experiment: Pull-down binding assay in HeLa K cell extract, APC/C; details: Pra peptide clicked to azide agarose or magnetic beads, Western blot
T1 construct: endogenous in cells; host or cells: HeLa K cell extract
Experimental: (§1) For the protein transfer, the 0.45 μm Immobilon-FL PVDF membrane (Merck Millipore) was used. The membrane was activated in ethanol and then transferred to the Blotting buffer (50 mM SDS-MOPS, 50 mM Tris base, 0.1% SDS, 1 mM EDTA, 20% EtOH). The proteins were transferred using a wet transfer for 1.5 h at 400 mA. Subsequently, the membrane was incubated with the blocking solution, 10% milk in PBS-T (0.02% Tween-20 in PBS), for 1 h at room temperature. To detect proteins of the interest, the membrane was incubated with primary antibodies overnight at 4° C. Followed by washing the membrane 3 times 10 min with PBS-T and incubation with IRDye fluorescently labelled secondary antibodies for 1 h. Prior detection, the membrane was twice washed with PBS-T for 10 min and once with PBS for 10 min. The detection was done using the quantitative near-infrared scanning system Odyssey (LI-COR Biosciences).
HeLa K cell pellet was re-suspended in the extraction buffer (30 mM HEPES pH 7.5, 175 mM NaCl, 2.5 mM MgCl2, 0.25% NP40, 10% glycerol, 1 mM DTT) supplemented with 10 μM MG132 (VWR), 1 mM PMSF (Sigma-Aldrich), complete protease inhibitor cocktail (Roche) and PhosSTOP phosphatase inhibitors (Roche) and incubated for 20 min on ice, followed by centrifugation of cell debris for 15 min at 4° C. 16 100 g. In mean time, inhibitor molecules containing Propargyl (Pra) chemical group were covalently attached to the azide agarose or azide magnetic resin (Jena Bioscience) by Cu(I)-catalysed azide-alkyne cycloaddition reaction. Specifically, the inhibitor molecules were mixed with azide agarose resin in ratio 0.125 μmol inhibitor/25 μl agarose resin and azide magnetic resin in ratio 0.018 μmol inhibitor/20 μl magnetic resin. The reaction was catalysed by 1 mM CuSO4, 0.1 mM TBTA (Sigma-Aldrich) and 1 mM Sodium ascorbate and was performed on the rotating wheel for 30 min at room temperature in the volume of 1 ml. Subsequently, the resin was washed 5 times with the extraction buffer. The inhibitor-agarose resin was added to 1 mg of HeLa K cell extract and the inhibitor-magnetic resin was added to 0.5 mg of HeLa K cell extract followed by incubation at 4° C. for 2 h. Followed by washing the resin 5 times with the extraction buffer. Pull-down proteins were eluted by boiling for 15 min with 1×LDS sample buffer supplemented with 100 mM DTT (agarose resin) or by incubation with 1×LDS sample buffer for 10 min at room temperature followed by taking supernatant that was supplemented with 100 mM DTT and boiling it for 10 min. Samples were subjected to SDS PAGE and Western blot analysis.
(§2) HeLa K cell pellet was re-suspended in the extraction buffer (30 mM HEPES pH 7.5, 175 mM NaCl, 2.5 mM MgCl2, 0.25% NP40, 10% glycerol, 1 mM DTT supplied with complete protease inhibitor cocktail (Roche), PhosSTOP phosphatase inhibitors (Roche), 1 mM PMSF, 10 μM MG132) and incubated for 20 min on ice, followed by centrifugation to clear the lysate for 15 min at 4° C. 16,100 g. In the meantime, inhibitor molecules containing the propargyl-Gly-OH (Pra) chemical group were covalently attached to the azide agarose resin (Jena Bioscience) by Cu(I)-catalysed azide-alkyne cycloaddition reaction. Specifically, the inhibitor molecules were mixed with azide agarose resin in ratio 0.125 μmol inhibitor/20 μl agarose resin. The reaction was catalysed by 0.1 mM CuSO4, 0.5 mM THPTA (Sigma-Aldrich) and 5 mM Sodium ascorbate and was performed on the rotating wheel for 30 min at room temperature in the volume of 1 ml. […]

RBX1 = target: T2, RBX1 (Homo sapiens, UniProt P62877); experiment: Pull-down binding assay in HeLa K cell extract, RBX1; details: azide beads, Western blot
T2 construct: endogenous in cells; host or cells: HeLa K cell extract
Experimental: as §1
HeLa K cell pellet was re-suspended in the extraction buffer (30 mM HEPES pH 7.5, 175 mM NaCl, 2.5 mM MgCl2, 0.25% NP40, 10% glycerol, 1 mM DTT) supplemented with 10 μM MG132 (VWR), 1 mM PMSF (Sigma-Aldrich), complete protease inhibitor cocktail (Roche) and PhosSTOP phosphatase inhibitors (Roche) and incubated for 20 min on ice, followed by centrifugation of cell debris for 15 min at 4° C. 16 100 g. […]

BMI-1 = target: T3, BMI-1 (Homo sapiens, UniProt P35226); experiment: Pull-down binding assay in HeLa K cell extract, BMI-1; details: azide agarose beads, Western blot
T3 construct: endogenous in cells; host or cells: HeLa K cell extract
T3 sequence (P35226 1-326): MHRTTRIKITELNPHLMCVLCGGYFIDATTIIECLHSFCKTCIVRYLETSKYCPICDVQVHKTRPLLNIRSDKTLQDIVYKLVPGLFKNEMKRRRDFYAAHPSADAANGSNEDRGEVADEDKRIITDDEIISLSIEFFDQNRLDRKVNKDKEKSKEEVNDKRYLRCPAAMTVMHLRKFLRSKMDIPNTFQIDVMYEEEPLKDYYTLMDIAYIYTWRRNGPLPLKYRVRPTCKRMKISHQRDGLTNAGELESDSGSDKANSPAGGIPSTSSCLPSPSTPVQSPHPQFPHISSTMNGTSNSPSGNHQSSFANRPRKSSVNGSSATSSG
Experimental: as §2, with “ml. Subsequently, the resin was washed five times with the extraction buffer. The inhibitor-agarose resin was added to 2 mg of HeLa K cell extract and incubated at 4° C. for 2 h. Afterwards, the resin was washed four times with the extraction buffer. Pull-down proteins were eluted by incubation with pre-warmed 1×LDS sample buffer for 10 min at room temperature followed by taking supernatant supplemented with 100 mM DTT and boiling for 10 min.” for “ml.”

BRCA1 = target: T4, BRCA1 (Homo sapiens, UniProt P38398); experiment: Pull-down binding assay in HeLa K cell extract, BRCA1; details: azide agarose beads, Western blot
T4 construct: endogenous in cells; host or cells: HeLa K cell extract
Experimental: as §2, with “ml. Subsequently, the resin was washed five times with the extraction buffer. The inhibitor-agarose resin was added to 2 mg of HeLa K cell extract and incubated at 4° C. for 2 h. Afterwards, the resin was washed four times with the extraction buffer. Pull-down proteins were eluted by incubation with pre-warmed 1×LDS sample buffer for 10 min at room temperature followed by taking supernatant supplemented with 100 mM DTT and boiling for 10 min.” for “ml.”

c-CBL = target: T5, c-CBL (Homo sapiens, UniProt P22681); experiment: Pull-down binding assay in HeLa K cell extract, c-CBL; details: azide agarose beads, Western blot
T5 construct: endogenous in cells; host or cells: HeLa K cell extract
Experimental: as §2, with “ml. Subsequently, the resin was washed five times with the extraction buffer. The inhibitor-agarose resin was added to 2 mg of HeLa K cell extract and incubated at 4° C. for 2 h. Afterwards, the resin was washed four times with the extraction buffer. Pull-down proteins were eluted by incubation with pre-warmed 1×LDS sample buffer for 10 min at room temperature followed by taking supernatant supplemented with 100 mM DTT and boiling for 10 min.” for “ml.”

c-IAP1 = target: T6, c-IAP1 (Homo sapiens, UniProt Q13490); experiment: Pull-down binding assay in HeLa K cell extract, c-IAP1; details: azide agarose beads, Western blot
T6 construct: endogenous in cells; host or cells: HeLa K cell extract
Experimental: as §2, with “ml. Subsequently, the resin was washed five times with the extraction buffer. The inhibitor-agarose resin was added to 2 mg of HeLa K cell extract and incubated at 4° C. for 2 h. Afterwards, the resin was washed four times with the extraction buffer. Pull-down proteins were eluted by incubation with pre-warmed 1×LDS sample buffer for 10 min at room temperature followed by taking supernatant supplemented with 100 mM DTT and boiling for 10 min.” for “ml.”

MDM2 = target: T7, MDM2 (Homo sapiens, UniProt Q00987); experiment: Pull-down binding assay in HeLa K cell extract, MDM2; details: azide agarose beads, Western blot
T7 construct: endogenous in cells; host or cells: HeLa K cell extract
Experimental: as §2, with “ml. Subsequently, the resin was washed five times with the extraction buffer. The inhibitor-agarose resin was added to 2 mg of HeLa K cell extract and incubated at 4° C. for 2 h. Afterwards, the resin was washed four times with the extraction buffer. Pull-down proteins were eluted by incubation with pre-warmed 1×LDS sample buffer for 10 min at room temperature followed by taking supernatant supplemented with 100 mM DTT and boiling for 10 min.” for “ml.”

TRAF2 = target: T8, TRAF2 (Homo sapiens, UniProt Q12933); experiment: Pull-down binding assay in HeLa K cell extract, TRAF2; details: azide agarose beads, Western blot
T8 construct: endogenous in cells; host or cells: HeLa K cell extract
T8 sequence (Q12933 1-501): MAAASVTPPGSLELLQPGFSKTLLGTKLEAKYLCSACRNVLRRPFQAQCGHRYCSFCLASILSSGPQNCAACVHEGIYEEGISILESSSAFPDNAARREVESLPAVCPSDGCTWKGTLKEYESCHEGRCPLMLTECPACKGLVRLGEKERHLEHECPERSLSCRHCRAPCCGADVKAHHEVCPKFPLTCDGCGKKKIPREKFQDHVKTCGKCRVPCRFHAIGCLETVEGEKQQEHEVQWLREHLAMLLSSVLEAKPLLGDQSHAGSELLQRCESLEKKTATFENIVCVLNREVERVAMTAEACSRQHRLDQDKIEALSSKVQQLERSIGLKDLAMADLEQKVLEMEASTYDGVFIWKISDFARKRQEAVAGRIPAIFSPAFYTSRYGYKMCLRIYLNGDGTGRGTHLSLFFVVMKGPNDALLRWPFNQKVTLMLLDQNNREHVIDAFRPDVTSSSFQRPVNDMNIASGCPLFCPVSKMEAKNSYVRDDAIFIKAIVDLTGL
Experimental: as §2, with “ml. Subsequently, the resin was washed five times with the extraction buffer. The inhibitor-agarose resin was added to 2 mg of HeLa K cell extract and incubated at 4° C. for 2 h. Afterwards, the resin was washed four times with the extraction buffer. Pull-down proteins were eluted by incubation with pre-warmed 1×LDS sample buffer for 10 min at room temperature followed by taking supernatant supplemented with 100 mM DTT and boiling for 10 min.” for “ml.”

T7 sequence (Q00987 whole entry): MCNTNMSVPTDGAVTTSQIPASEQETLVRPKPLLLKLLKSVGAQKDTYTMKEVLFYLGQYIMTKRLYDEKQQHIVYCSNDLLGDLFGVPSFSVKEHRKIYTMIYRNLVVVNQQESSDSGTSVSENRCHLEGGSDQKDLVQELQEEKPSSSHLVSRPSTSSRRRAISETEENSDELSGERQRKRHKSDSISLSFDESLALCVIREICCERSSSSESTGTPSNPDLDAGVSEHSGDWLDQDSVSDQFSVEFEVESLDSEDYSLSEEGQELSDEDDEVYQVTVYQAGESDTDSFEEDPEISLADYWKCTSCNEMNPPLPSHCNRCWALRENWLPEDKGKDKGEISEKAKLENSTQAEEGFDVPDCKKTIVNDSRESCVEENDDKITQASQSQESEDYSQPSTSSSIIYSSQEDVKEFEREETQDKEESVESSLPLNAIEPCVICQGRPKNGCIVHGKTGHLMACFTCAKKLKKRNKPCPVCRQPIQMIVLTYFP
T2 sequence (P62877 whole entry): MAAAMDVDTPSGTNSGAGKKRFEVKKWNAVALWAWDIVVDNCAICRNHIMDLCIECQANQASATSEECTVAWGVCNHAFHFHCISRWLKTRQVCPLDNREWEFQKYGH
T6 sequence (Q13490 whole entry): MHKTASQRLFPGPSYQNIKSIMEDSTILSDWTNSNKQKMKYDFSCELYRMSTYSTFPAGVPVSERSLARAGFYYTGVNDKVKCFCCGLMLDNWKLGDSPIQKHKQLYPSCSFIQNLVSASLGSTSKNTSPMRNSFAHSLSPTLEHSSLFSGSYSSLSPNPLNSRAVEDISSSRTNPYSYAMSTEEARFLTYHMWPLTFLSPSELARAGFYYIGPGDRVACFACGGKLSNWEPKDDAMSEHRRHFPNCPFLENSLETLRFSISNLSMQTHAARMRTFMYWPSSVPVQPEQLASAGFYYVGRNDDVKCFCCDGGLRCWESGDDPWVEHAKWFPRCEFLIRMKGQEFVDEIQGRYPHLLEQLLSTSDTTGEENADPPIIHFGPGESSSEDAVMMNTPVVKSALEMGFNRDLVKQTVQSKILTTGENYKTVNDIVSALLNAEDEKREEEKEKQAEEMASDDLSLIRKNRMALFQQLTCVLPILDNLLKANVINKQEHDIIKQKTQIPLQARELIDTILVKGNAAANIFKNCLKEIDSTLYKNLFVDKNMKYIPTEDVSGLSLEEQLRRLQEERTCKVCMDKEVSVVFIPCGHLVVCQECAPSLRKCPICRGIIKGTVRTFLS
T4 sequence (P38398 whole entry): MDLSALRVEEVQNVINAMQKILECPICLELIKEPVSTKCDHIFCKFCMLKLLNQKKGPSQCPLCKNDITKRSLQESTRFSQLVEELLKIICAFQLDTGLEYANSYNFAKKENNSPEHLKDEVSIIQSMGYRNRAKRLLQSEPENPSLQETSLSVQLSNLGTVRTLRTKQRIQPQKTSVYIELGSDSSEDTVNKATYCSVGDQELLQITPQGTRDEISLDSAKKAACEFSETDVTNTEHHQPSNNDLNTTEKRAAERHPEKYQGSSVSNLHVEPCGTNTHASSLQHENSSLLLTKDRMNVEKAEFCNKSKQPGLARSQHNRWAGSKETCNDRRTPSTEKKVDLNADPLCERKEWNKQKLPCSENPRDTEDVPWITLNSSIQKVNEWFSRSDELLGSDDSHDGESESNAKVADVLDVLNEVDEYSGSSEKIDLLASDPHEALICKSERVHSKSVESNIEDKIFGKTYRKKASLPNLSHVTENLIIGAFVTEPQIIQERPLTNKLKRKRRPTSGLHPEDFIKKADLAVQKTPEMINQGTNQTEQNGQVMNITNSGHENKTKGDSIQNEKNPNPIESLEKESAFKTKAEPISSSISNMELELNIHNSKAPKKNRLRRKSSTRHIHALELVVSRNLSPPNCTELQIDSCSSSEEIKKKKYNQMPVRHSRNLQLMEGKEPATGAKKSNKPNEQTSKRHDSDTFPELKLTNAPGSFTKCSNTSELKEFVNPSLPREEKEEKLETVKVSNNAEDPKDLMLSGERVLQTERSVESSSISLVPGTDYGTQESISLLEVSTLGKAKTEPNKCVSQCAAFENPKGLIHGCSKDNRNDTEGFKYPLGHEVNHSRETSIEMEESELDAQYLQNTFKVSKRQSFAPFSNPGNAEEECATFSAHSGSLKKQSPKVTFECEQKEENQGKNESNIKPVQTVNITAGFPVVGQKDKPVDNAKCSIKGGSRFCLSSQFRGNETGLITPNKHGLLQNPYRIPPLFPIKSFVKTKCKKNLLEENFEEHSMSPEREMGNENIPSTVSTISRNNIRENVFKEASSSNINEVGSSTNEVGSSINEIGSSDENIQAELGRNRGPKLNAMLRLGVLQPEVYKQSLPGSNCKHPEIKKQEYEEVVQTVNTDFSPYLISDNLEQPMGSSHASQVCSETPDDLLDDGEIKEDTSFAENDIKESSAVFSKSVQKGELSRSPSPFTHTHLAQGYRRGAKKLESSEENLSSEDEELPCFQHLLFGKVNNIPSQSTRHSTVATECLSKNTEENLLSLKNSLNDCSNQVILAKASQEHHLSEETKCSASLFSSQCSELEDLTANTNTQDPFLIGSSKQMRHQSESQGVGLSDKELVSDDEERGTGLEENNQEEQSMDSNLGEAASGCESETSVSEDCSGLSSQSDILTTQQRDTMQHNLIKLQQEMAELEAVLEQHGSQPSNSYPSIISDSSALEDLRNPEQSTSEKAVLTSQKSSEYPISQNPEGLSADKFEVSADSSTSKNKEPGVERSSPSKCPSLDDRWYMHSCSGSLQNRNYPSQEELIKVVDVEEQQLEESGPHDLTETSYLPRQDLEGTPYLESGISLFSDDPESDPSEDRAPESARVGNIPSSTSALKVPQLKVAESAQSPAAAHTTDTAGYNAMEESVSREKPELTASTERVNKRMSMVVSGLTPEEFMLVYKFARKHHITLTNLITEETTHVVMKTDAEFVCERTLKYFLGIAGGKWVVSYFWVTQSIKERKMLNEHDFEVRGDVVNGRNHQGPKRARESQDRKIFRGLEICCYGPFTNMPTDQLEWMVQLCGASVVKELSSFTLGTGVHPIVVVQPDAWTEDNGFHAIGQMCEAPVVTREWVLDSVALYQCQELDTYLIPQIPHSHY

binding to the APC/C (pull-down) (APC/C (APC11)): binds
binding to RBX1 (pull-down) (RBX1): binds
binding to BMI-1 (pull-down) (BMI-1): binds
binding to BRCA1 (pull-down) (BRCA1): binds
binding to c-CBL (pull-down) (c-CBL): binds
binding to c-IAP1 (pull-down) (c-IAP1): binds
binding to MDM2 (pull-down) (MDM2): binds
binding to TRAF2 (pull-down) (TRAF2): binds
Substance: Ac-cyclo(3,12)-PraRCHWGPRTFWCR-NH2 (Ac-[Pra]RCHWGPRTFWCR-NH2; disulfide 3-12; SMILES C#CC[C@H](NC(C)=O)C(=O)N[C@@H](CCCNC(=N)N)C(=O)N[C@H]1CSSC[C@@H](C(=O)N[C@@H](CCCNC(=N)N)C(N)=O)NC(=O)[C@H](Cc2c[nH]c3ccccc23)NC(=O)[C@H](Cc2ccccc2)NC(=O)[C@H]([C@@H](C)O)NC(=O)[C@H](CCCNC(=N)N)NC(=O)[C@@H]2CCCN2C(=O)CNC(=O)[C@H](Cc2c[nH]c3ccccc23)NC(=O)[C@H](Cc2c[nH]cn2)NC1=O) [G1-3Pra]
